Columns and labels:
Dog ASGR-1 = molecular target: T1, Dog ASGR-1 (dog); test: FACS on transfected HEK 293 cells or membrane preps on beads; binding = signal at least 2x irrelevant IgG
T1 construct: Expressed on HEK 293 cells or as membrane prep on beads; cDNA GenBank XM_546579
T1 chain: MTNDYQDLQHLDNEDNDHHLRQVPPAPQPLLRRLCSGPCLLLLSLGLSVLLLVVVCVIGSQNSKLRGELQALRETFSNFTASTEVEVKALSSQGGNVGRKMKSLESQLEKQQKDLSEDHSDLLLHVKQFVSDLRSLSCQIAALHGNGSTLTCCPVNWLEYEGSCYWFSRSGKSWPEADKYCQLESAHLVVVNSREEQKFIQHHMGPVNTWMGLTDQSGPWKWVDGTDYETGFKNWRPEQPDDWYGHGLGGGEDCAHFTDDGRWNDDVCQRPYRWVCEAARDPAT
In short: (§1)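 Antibodies at normalized concentrations bound 1 h at 4° C to HEK 293 cells expressing each antigen, then Alexa Fluor 647 anti-Fc plus 7-AAD 15 min at 4° C, flow cytometry; empty-vector cells as negative. Alternatively, species ASGR-1 membrane preps on streptavidin beads, antibody 1 h RT, Alexa Fluor 488 anti-Fc; FACS buffer with 1 mM CaCl2 throughout.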

Pig ASGR-1 = molecular target: T2, Pig ASGR-1 (pig); test: as above
T2 construct: Expressed on HEK 293 cells or as membrane prep on beads; cDNA GenBank NM_001244458
T2 chain: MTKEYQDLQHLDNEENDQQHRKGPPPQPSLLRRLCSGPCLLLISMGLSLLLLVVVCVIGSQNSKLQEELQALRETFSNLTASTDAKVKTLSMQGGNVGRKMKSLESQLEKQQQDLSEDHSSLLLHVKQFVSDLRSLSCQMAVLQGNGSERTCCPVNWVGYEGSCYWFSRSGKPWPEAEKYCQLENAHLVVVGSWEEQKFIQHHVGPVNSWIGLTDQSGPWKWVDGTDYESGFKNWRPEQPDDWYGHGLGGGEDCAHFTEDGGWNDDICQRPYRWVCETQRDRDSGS
In short: as §1

Rat ASGR-1 = molecular target: T3, Rat ASGR-1 (rat, UniProt P02706 1-284); test: FACS on transfected HEK 293 cells or membrane preps on beads; Y = signal at least 2x irrelevant IgG
T3 construct: Expressed on HEK 293 cells or as membrane prep on beads; cDNA GenBank NM_012503
T3 sequence: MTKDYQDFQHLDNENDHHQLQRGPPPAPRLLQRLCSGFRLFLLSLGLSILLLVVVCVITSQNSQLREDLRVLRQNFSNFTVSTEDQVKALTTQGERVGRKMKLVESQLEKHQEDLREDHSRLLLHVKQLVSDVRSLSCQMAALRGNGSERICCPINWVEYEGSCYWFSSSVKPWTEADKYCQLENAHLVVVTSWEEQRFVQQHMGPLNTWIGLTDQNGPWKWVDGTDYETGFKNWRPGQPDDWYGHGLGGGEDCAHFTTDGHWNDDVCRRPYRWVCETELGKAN
In short: as §1

Human ASGR-2 = molecular target: T4, Human ASGR-2 (human, UniProt P07307 1-311); test: FACS on transfected HEK 293 cells; Y = signal at least 2x irrelevant IgG
T4 construct: Expressed on HEK 293 cells; cDNA GenBank NM_080913.3; also called huASGR-2; hASGR-2
T4 sequence: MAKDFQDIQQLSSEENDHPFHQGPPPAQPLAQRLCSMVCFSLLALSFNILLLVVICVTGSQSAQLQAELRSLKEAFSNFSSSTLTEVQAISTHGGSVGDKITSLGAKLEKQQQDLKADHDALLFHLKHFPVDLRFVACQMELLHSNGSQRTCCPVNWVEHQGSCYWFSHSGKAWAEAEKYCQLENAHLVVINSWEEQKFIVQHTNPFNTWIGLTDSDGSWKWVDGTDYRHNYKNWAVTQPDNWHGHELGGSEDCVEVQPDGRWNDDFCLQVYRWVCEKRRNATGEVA
Method: Human ASGR-1-specific, ligand competing antibody samples were tested for binding to ASGR-1 from other species (cynomologus monkey ASGR-1, mouse ASGR-1, rat ASGR-1, dog ASGR-1, and pig ASGR-1) as well as to human ASGR-2 in FACS binding assays at normalized antibody concentrations. For cell-based assays, HEK 293 cells expressing the appropriate antigen of interest were mixed with antibody sample or controls, incubated for 1 hour at 4° C., and then washed twice. Cells with bound antibody were then incubated with Alexa Fluor® 647 IgG Fc fragment-specific detection antibody and 7-AAD viability stain for 15 minutes at 4° C., washed once and resuspended in FACS buffer. Samples were analyzed using a BD Accuri™ Flow Cytometer and an Intellicyt HyperCyt Autosampler. As a negative control, supernatants and controls were also screened against HEK 293 cells transfected with empty parental vector. […] For membrane-prep binding assays, ASGR-1 species specific membrane preps were used to coat LumAvidin® microspheres (beads) and tested for binding to selected hybridoma supernatants or controls. Briefly, ASGR-1 species specific membrane preps were incubated with streptavidin-coated LumAvidin® beads for 45 minutes in the dark at room temperature and washed twice. Beads were resuspeneded in FACS buffer containing Stabilguard®. […] Samples were analyzed using an Intellicyt iQue™ Screener Platform. […]

- binding result (Dog ASGR-1): no binding
- binding result (Pig ASGR-1): no binding
- binding result (Rat ASGR-1): binds
- binding result (Human ASGR-2): binds
B1: 6G7 (antibody, V domains shown)
VH: QVQLVESGGGVVQPGRSLRLSCAASGFTFSSYGMHWVRQTPGKGLEWVAIISYVGKNKYYADSVKGRFTISRDNSKNTLYLQMNSLRAEDTAVYYCARRGNSYGGYGMDVWGQGTTVTVSS
VL: DIQMTQSPSSRSASVGDRVTITCQASQDISNYLNWCQQKPGKALKLLIYDASTLETGVPSRFSGSGSGTDFTFTISSVQPEDIATYYCQQYDNVPITFGQGTRLEIK
notes: Tested as hybridoma supernatant at normalized concentration
